Test results as given in publication PMC12277127 (Nucleic Acids Research, 2024).
Each block holds one binder with its values, some of them ahead of it.

How the values were obtained:
Conditions in all cases: both partners purified
M1-linked hexaUb = target: T1, M1-linked hexaUb (UniProt P0CG48 1-456); test: ITC; ubiquitin species titrated into the SPRTN fragment (arrows in Supplementary Figures 4A, 4D, 6A); 25°C; 50 mM HEPES pH 7.4, 50 mM NaCl, 0.5 mM TCEP-HCl; one-site binding model; at least 3 repeats, undetectable pairs 1 repeat
T1 construct: six ubiquitin units head to tail on one chain (M1-linked, linear); plasmid pET-24-hexaUb; also called M1-Ub6; source: E. coli BL21(DE3), purified (HisTrap, SEC)

M1-linked diUb = target: T2, M1-linked diUb (UniProt P0CG48 1-152); test: as above
T2 construct: two ubiquitin units head to tail on one chain (M1-linked, linear); plasmid pET-47b-N-His-Ub2; The His tag was removed by HRV 3C only for the 15N-labelled M1-Ub2 of the NMR work, as far as the methods tell; also called M1-Ub2; M1-Ub2 WT; source: E. coli BL21(DE3), purified (HisTrap, SEC)

M1-linked tetraUb = target: T3, M1-linked tetraUb (UniProt P0CG48 1-304); test: as above
T3 construct: four ubiquitin units head to tail on one chain (M1-linked, linear); plasmid pET-24-tetraUb; also called M1-Ub4; source: E. coli BL21(DE3), purified (HisTrap, SEC)

[1] = target: T4, M1-linked tetraUb (His-tagged M1-Ub4) (UniProt P0CG48 1-76; P0CG48 1-76; P0CG48 1-76; P0CG48 1-76); test: ITC; MicroCal PEAQ-ITC, 25°C, 50 mM HEPES pH 7.4, 50 mM NaCl, 0.5 mM TCEP–HCl; one-site binding model; who was in the syringe is not told
T4 construct: ubiquitin unit 1 of 4, joined head to tail (M1-linked); ubiquitin unit 2 of 4; ubiquitin unit 3 of 4; ubiquitin unit 4 of 4; source: E. coli BL21(DE3), purified (HisTrap, SEC)

[2] = target: T5, M1-linked hexaUb (His-tagged M1-Ub6) (UniProt P0CG48 1-76; P0CG48 1-76; P0CG48 1-76; P0CG48 1-76; P0CG48 1-76; P0CG48 1-76); test: as above
T5 construct: ubiquitin unit 1 of 6, joined head to tail (M1-linked); ubiquitin unit 2 of 6; ubiquitin unit 3 of 6; ubiquitin unit 4 of 6; ubiquitin unit 5 of 6; ubiquitin unit 6 of 6; source: E. coli BL21(DE3), purified (HisTrap, SEC)

[3] = target: T6, M1-linked diUb (His-tagged M1-Ub2) (UniProt P0CG48 1-76; P0CG48 1-76); test: as above
T6 construct: ubiquitin unit 1 of 2 (distal), joined head to tail (M1-linked); ubiquitin unit 2 of 2 (proximal); its I44 is printed as position 120 of the chain; also called linear diUb; source: E. coli BL21(DE3), purified (HisTrap, SEC)

[4] = target: T7, Proliferating Cell Nuclear Antigen (UniProt P12004 1-261); test: SPR; SPRTN PIP-UBZ amine-coupled to a CM5 chip (~1000 RU); analytes monoUb, PCNA, monoUb-PCNA; 50 mM HEPES pH 7.4, 50 mM NaCl, 0.5 mM TCEP-HCl; steady-state affinity model
T7 construct: PCNA; plasmid pET16b-PCNA (Addgene #134898); also called PCNA; source: E. coli BL21(DE3), purified (Q Sepharose, heparin, SEC)
T7 sequence (P12004 whole entry): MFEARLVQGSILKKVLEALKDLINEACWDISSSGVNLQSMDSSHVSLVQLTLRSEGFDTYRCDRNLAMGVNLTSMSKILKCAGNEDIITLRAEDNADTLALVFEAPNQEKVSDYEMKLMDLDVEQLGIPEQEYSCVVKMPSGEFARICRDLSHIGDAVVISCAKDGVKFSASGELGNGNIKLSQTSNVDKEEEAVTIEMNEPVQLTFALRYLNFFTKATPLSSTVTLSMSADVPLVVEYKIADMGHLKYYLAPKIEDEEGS

- Kd (M1-linked hexaUb): 34.8 ± 3.8 µM
- Kd (M1-linked diUb): 132 ± 3.9 µM
- Kd (M1-linked tetraUb): 69.7 ± 6.9 µM
B1: SPRTN core region (26-240 aa), E112Q (domain or fragment, human, UniProt Q9H040 26-240, looked up)
chain: QESLSLVDASWELVDPTPDLQALFVQFNDQFFWGQLEAVEVKWSVRMTLCAGICSYEGKGGMCSIRLSEPLLKLRPRKDLVETLLHQMIHAYLFVTNNDKDREGHGPEFCKHMHRINSLTGANITVYHTFHDEVDEYRRHWWRCNGPCQHRPPYYGYVKRATNREPSAHDYWWAEHQKTCGGTYIKIKEPENYSKKGKGKAKLGKEPVLAAENKD
notes: SPRTN, human, residues 26-240 (MPD, ZBD and BR); plasmid pNIC28-SPRTN core (26-240), E112Q; also called SPRTN core (E112Q); SPRTN core E112Q; source: E. coli BL21(DE3), purified (Ni-NTA, TEV cleavage, SEC)

- Kd [1]: ~70 µM
- Kd [2]: ~35 µM
- Kd [3]: ~132 µM
B2: SPRTN core region (E112Q), enzymatically inactive (domain or fragment, human, UniProt Q9H040 26-240, looked up)
chain: QESLSLVDASWELVDPTPDLQALFVQFNDQFFWGQLEAVEVKWSVRMTLCAGICSYEGKGGMCSIRLSEPLLKLRPRKDLVETLLHQMIHAYLFVTNNDKDREGHGPEFCKHMHRINSLTGANITVYHTFHDEVDEYRRHWWRCNGPCQHRPPYYGYVKRATNREPSAHDYWWAEHQKTCGGTYIKIKEPENYSKKGKGKAKLGKEPVLAAENKD
notes: SPRTN, human, residues 26-240 (plasmid pNIC28-SPRTN (26-240)), variant E112Q; also called SPRTN core (E112Q); ΔMIU, ΔC: 26–240 aa; source: E. coli BL21(DE3), purified (Ni-NTA, TEV cleavage, HisTrap flow-through, SEC)

- Kd [4]: 12.8 ± 2 µM
B3: SPRTN PIP-UBZ (320-489) (domain or fragment, human, UniProt Q9H040 320-489, looked up)
chain: VSNSHQNVLSNYFPRVSFANQKAFRGVNGSPRISVTVGNIPKNSVSSSSQRRVSSSKISLRNSSKVTESASVMPSQDVSGSEDTFPNKRPRLEDKTVFDNFFIKKEQIKSSGNDPKYSTTTAQNSSSSSSQSKMVNCPVCQNEVLESQINEHLDWCLEGDSIKVKSEESL
notes: SPRTN, human, PIP box to UBZ, residues 320-489; plasmid pCold I-SPRTN-PIP-UBZ (320-489); Its purification is not described; amine-coupled to a CM5 chip for SPR
